Tests used:
Clo SugE = assay type: binding, Clostridiales bacterium oral taxon 876
purified protein [1] = substrate: NC(N)=O; assay: purified protein
purified protein [2] = substrate: N=C(N)N; assay: purified protein

## N=C(N)N [guanidine]
Clo SugE
  Kd: ~1 mM

B1: urea carboxylase (guanidine carboxylase) (Oleomonas sagaranensis) (protein)
chain: MFKKILIANRGEIAARVIKTARKMGIATVAVHSEADRFTLPVLAADEAICLGPAPAKESYLRAEAIVQACIDTGAEAVHPGYGFLSENAGFAEALAAKGIRFIGPRPEHLRDFGLKHTARALAEAAGVPLLPGTGILLSAEEALAAAHEIGYPVMLKSTAGGGGIGMSLCHDASELQARFEAVQRMASSSFGDARVYIERFVSTARHVEVQIFGDGKGNVVALGERDCSLQRRNQKVVEETPAPGLSPELRARLHAAAVALGKAVAYESAGTVEFIYDVARGDFSFLEVNTRLQVEHPVTESVFGVDLVEWMIRQAAGELLLPAQGSLVPRGAAIEVRLYAENPQANFRPQTGRLTEVAFPDDIRVDTWVATGTEVTPFYDPMLAKVIVTGADRPAAIAALSDALAKTKVWGIETNLAYLRAIAASDVFTSGAVSTAALGQFVFTAPTIEVIVAGAQTSVQDWPGRLGLWDVGVPPSGPFDDRSFRLANRILGNAEGAAGLECTLSGPTLKFHGDALIALAGAEMPAALDGVAVPMLTAIPVKAGQTLSLGQIKGAGQRTYLAVRGGIDGPKFLGARACFSLGQFGGHATGVLKAGDTLHIAAETAGEPMPADEKPLITRDWVIGVHYGPHGAPDFFQDADIDDLFAATYEVHFNSARTGVRLIGPKPRWARADGGEAGLHPSNIHDNAYAIGAIDFTGDMPIILGPDGPSLGGFVCPAVIARDELWKAGQLKPGDKVRFVPHGMAAPQVITSKDIGTPILGTIDGGPVPVVYRRAGDDYLLVEYGPMVLDIALRLRIHLLAQAVREARLPAIIDLTPGIRSLQIHYDSRVLKTATLVAALREIEAGLPPAEAVKVPSRIVHLPLSWNDPSIQLAARKYQELVRPNAPWCPSNIEFIRRINGLGSVDDVQNIIFDASYLVLGLGDVYLGAPVATPVDPRHRLVTTKYNPARTWTPENAVGIGGAYMCIYGMEGPGGYQLFGRTVQMWNAWRTTPVFTPGHPWLLRFFDQIRFFPVSEQELIEAREAFPHGRYPVRIEETTFDYAQHAAFLAAERPAIEAAKARQQTAFEVERQDWKARGLDSFVVEDGPAASDADVPEGQTPVEAQVTGNVWKIIAEEGTNVAAGDIVVIVESMKMEMEIRSPVAGKVTALRCQPGRTVQAGQIVALIEAA
Purified protein [1]
  Km: 5200 µM
Purified protein [2]
  Km: 190 µM
